Experimental data: the RNAGym collection of RNA variant scans (doi:10.1073/pnas.2313332121)

B1: TPR t1 (parent)
chain: GACCAAUCUGCCCUCAGAGCUCGAGAACAUCUUCGGAUGCAGAGGAGGCAGGCUUCGGUGGCGCGAUAGCGCCAACGUCCUCAACCUCCAAUGCAUCCCACCACAUGAUGAUGCCUGAAGAGCCUUGGUUUUUUG

Variants of: B1
Experiment: polymerase ribozyme fitness, log enrichment relative to wild type (log ratio); higher = more active; in vitro selection for triplet polymerase activity
Procedure, shortened: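 Mutant libraries of both subunits of a heterodimeric triplet polymerase ribozyme were PCR-built, transcribed, and selected once in triplicate, with frozen incubation at −7 °C and capture of gel-excised extended constructs on streptavidin beads before RT-PCR. Illumina sequencing of input and output libraries was filtered to genotypes with ≥10 input reads and ≥1 read per output. Fitness is the logarithm of genotype enrichment over wild-type enrichment, using inverse-variance-weighted replicate averages. The logarithm is base 2.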

First: GACCAAUCUGCCCUCAGAGCUCGAGAACAUCUUCGGAUGCAGAGGAGGCAGGCUUCGGUGGCGCGAUAGCGCCAACGUCCUCGACCUCCAAUGCAUCCCACCACAUGAUAAUGCCUGAAGAGCCUUGGUUUUUUG [A83G G110A]
Second: GACCAAUCUGCCCUCAGAGCUCGAGAACAUCUUCGGAUGCAGAGGAGGCAGGCUUCGGUGGCGCGAUAGCGCCAACGUCCUCUACCUCCAAUGCAUCCCACCACAUGAUGAUGCCUGAAGAGCCUUGGUUUUGUG [A83U U133G]
The “polymerase ribozyme fitness (log ratio)” value of the first is lower: -1.35 for the first, -0.873 for the second.

GACCAAUCUGCCCUCAGAGCUCGAGAACAUCUUCGGAUGCAGAGGAGGCAGGCUUCGGUGGCGCGAUAGCGCCAACGUCCUCUACCUACAAUGCAUCCCACCACAUGAUGAUGCCUGAAGAGCCUUGCUUUUUUG [A83U C88A G128C] and GACCAAUCUGCCCUCAGAGCUCGAGAACAUCUUCGGAUGCAGAGGAGGCAGGCUUCGGUGGCGCGAUAGCGCCAACGUCCUCAGCCUCCAAUGCAUCCCACCACAGGAUGAUGCCUGAAGAGCCUUGGUUUUUUG [A84G U106G] are within 0.2 log units of each other in “polymerase ribozyme fitness (log ratio)” value: -3.29 for the first, -3.32 for the second.

Compared with GACCAAUCUGCCCUCAGAGCUCGAGAACAUCUUCGGAUGCAGAGGAGGCAGGCUUCGGUGGCGCGAUAGCGCCAACGUCCUUAACCUCCAAUGCAUCCCACCACAUGAUGAAGCCUGAAGAGCCUUGGUGUUUUG [C82U U112A U130G], GACCAAUCUGCCCUCAGAGCUCGAGAACAUCUUCGGAUGCAGAGGAGGCAGGCUUCGGUGGCGCGAUAGCGCCAACGUCCUUAACCUCCAAUGCAGCCCACCACAUGAUGAUGCCUGAAGAGCCUUUGUUUUUUG [C82U U96G G127U] is lower in “polymerase ribozyme fitness (log ratio)” value: 0.499 for the first, -1.83 for the second.

First: GACCAAUCUGCCCUCAGAGCUCGAGAACAUCUUCGGAUGCAGAGGAGGCAGGCUUCGGUGGCGCGAUAGCGCCAACGUCCUCUACCUCCAAUGCAUCCCACCACAUGAUGAUCCCUGAAUAGCCUUGGUUUAUUG [A83U G113C G120U U132A]
Second: GACCAAUCUGCCCUCAGAGCUCGAGAACAUCUUCGGAUGCAGAGGAGGCAGGCUUCGGUGGCGCGAUAGCGCCAACGUCCUCUACCUCCAAUGCAUCCCACCACAUGAUGAUGCCUGAAGAGCCUUUGUUUUUUG [A83U G127U]
The “polymerase ribozyme fitness (log ratio)” value of the first is lower: -4.48 for the first, -1.08 for the second.

GACCAAUCUGCCCUCAGAGCUCGAGAACAUCUUCGGAUGCAGAGGAGGCAGGCUUCGGUGGCGCGAUAGCGCCAACGUCCUCGACCUCCAAUGCAUCCCACCACAUGAUGAUGCCUGAAAAGCCUUGGUUUUUUG [A83G G120A] and GACCAAUCUGCCCUCAGAGCUCGAGAACAUCUUCGGAUGCAGAGGAGGCAGGCUUCGGUGGCGCGAUAGCGCCAACGUCCUCGACCUCCAAUGCAUCCCACCACAUGAUGAUGCCUGAACAGCCUUGGUUUUUUG [A83G G120C] are within 0.2 log units of each other in “polymerase ribozyme fitness (log ratio)” value: 0.774 for the first, 0.655 for the second.

First: GACCAAUCUGCCCUCAGAGCUCGAGAACAUCUUCGGAUGCAGAGGAGGCAGGCUUCGGUGGCGCGAUAGCGCCAACGUCCUCAGCCUCCAAUCCAUCCCACCACAUGAUGAUGCCUGAAGAGCCUUUGUUUUUUG [A84G G93C G127U]
Second: GACCAAUCUGCCCUCAGAGCUCGAGAACAUCUUCGGAUGCAGAGGAGGCAGGCUUCGGUGGCGCGAUAGCGCCAACGUCCUCCACCUCCAAUGCAUACCACCACAUGAUGAUGCCUGAAGAGCCUUGGUUUUUUG [A83C C97A]
The “polymerase ribozyme fitness (log ratio)” value of the first is higher: -1.68 for the first, -3.66 for the second.

First: GACCAAUCUGCCCUCAGAGCUCGAGAACAUCUUCGGAUGCAGAGGAGGCAGGCUUCGGUGGCGCGAUAGCGCCAACGUCCUCCACCUCCAAUGCAUCCCACCACAUGAUGAUGGCUGAAGAGCCUUGGUUUAUUG [A83C C114G U132A]
Second: GACCAAUCUGCCCUCAGAGCUCGAGAACAUCUUCGGAUGCAGAGGAGGCAGGCUUCGGUGGCGCGAUAGCGCCAACGUCCUCCCCCUCCAAUGCAUCCCACCACAUGAUGAUGCCUGAGGAGCCUUGGUUUUUUG [A83C A84C A119G]
The “polymerase ribozyme fitness (log ratio)” value of the first is lower: -2.52 for the first, 0.957 for the second.

Going from GACCAAUCUGCCCUCAGAGCUCGAGAACAUCUUCGGAUGCAGAGGAGGCAGGCUUCGGUGGCGCGAUAGCGCCAACGUCCUCGGCCUCCAAUGCAUCCUACCACAUGAUGAUGCCUGAAGAGCCUUGGUUUUUUG [A83G A84G C99U] to GACCAAUCUGCCCUCAGAGCUCGAGAACAUCUUCGGAUGCAGAGGAGGCAGGCUUCGGUGGCGCGAUAGCGCCAACGUCCUCUACCUCCAAUGCAUCCCAGCACAUGAUGAUGCCUGAAGAGCCUUGGUUUUUUG [A83U C101G], the “polymerase ribozyme fitness (log ratio)” value rises from -5.16 to -1.74.

Compared with GACCAAUCUGCCCUCAGAGCUCGAGAACAUCUUCGGAUGCAGAGGAGGCAGGCUUCGGUGGCGCGAUAGCGCCAACGUCCUUAACCUCCAAUGCAUCCCACCACAUGAGGAUGCCUGAAGAGCCUUGGUGUUUUG [C82U U109G U130G], GACCAAUCUGCCCUCAGAGCUCGAGAACAUCUUCGGAUGCAGAGGAGGCAGGCUUCGGUGGCGCGAUAGCGCCAACGUCCUCAGCCUCCAAUGCAUCCCACCACAUGAUGAUGCCUGAAGAACCUUGGUUUUUUG [A84G G122A] is higher in “polymerase ribozyme fitness (log ratio)” value: -6.23 for the first, -1.44 for the second.

First: GACCAAUCUGCCCUCAGAGCUCGAGAACAUCUUCGGAUGCAGAGGAGGCAGGCUUCGGUGGCGCGAUAGCGCCAACGUCCUCAGUCUCCAAUGCAUCCCACCACAUGAUGAUGCCUGAAGAGCCUUGGUUUUUUG [A84G C85U]
Second: GACCAAUCUGCCCUCAGAGCUCGAGAACAUCUUCGGAUGCAGAGGAGGCAGGCUUCGGUGGCGCGAUAGCGCCAACGUCCUCCAACUCCAAUGCAUCCCACCACAUGAUGAUGCAUAAAGAGCCUUGGUUUUUUG [A83C C85A C115A G117A]
The “polymerase ribozyme fitness (log ratio)” value of the first is higher: 0.384 for the first, -6.05 for the second.

With GACCAAUCUGCCCUCAGAGCUCGAGAACAUCUUCGGAUGCAGAGGAGGCAGGCUUCGGUGGCGCGAUAGCGCCAACGUCCUCAGCCUCCAAUGCAUCCCACCACAUGAUGAUGCCUGAAAAGCCUUGGUUUUUUG [A84G G120A] the “polymerase ribozyme fitness (log ratio)” value was -0.185.
